Values of other authors as cited in paper PMC11939966.

Molecular target: Tristetraprolin (TTP) (Homo sapiens) (UniProt P26651)
Test: ITC

Sequence of UniProt P26651 (P26651 whole entry): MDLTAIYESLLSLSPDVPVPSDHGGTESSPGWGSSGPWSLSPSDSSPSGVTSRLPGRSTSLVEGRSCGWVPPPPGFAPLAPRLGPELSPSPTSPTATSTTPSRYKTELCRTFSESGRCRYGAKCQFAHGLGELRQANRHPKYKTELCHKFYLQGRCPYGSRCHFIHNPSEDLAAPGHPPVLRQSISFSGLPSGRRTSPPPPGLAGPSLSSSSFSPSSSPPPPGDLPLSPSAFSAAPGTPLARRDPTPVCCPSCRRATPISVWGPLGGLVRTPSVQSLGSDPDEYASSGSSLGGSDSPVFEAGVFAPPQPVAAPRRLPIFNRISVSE

Substance: CNOT1 800-999 (from UniProt A5YKK6)
- Kd: 2000 nM
